# B1: CD99-Ig fusion protein (Fc fusion)
# chain: DGGFDLSDALPDNENKKPTAIPKKPSAGDDFDLGDAVVDGENDDPRPPNPPKPMPNPNPNHPSSSGSFSDADLADGVSGGEGKGGSDGGGSHRKEGEEAD
# B2: NKp30-Ig fusion protein (Fc fusion, human, UniProt O14931 19-135, looked up, not shown: a dimerising Fc or GST)
# chain: LWVSQPPEIRTLEGSSAFLPCSFNASQGRLAIGSVTWFRDEVVPGKEVRNGTPEFRGRLAPLASSRFLHDHQAELHIRDVRGHDASIYVCRVEVLGLGVGTGNGTRLVVEKEHPQLG
# Target: HA of influenza virus X-127 (H1N1) on infected cells (influenza A virus X-127 (H1N1))
# Assay: not given
row,Molecule,MFI
1,NKp30-Ig fusion protein (from UniProt O14931 19-135) (Fc fusion),6
2,NKp44-Ig fusion protein (from UniProt O95944 22-190) (Fc fusion),220
3,NKp46-Ig fusion protein (from UniProt O76036 22-254) (Fc fusion),107
4,NKp46D1-Ig fusion protein (membrane distal domain of NKp46 fused to Fc of human IgG1) (from UniProt O76036 22-120) (Fc fusion),5
5,NKp46D2-Ig fusion protein produced in COS cells (membrane proximal domain of NKp46 fused to Fc of human IgG1) (from UniProt O76036 121-254) (Fc fusion),160
6,B1,1

# Target: rosettes of HA from X31 (A/Aichi/2/68xpr/8/34) H3N2 influenza virus (influenza A virus X31 …, UniProt P03437 17-520)
# Assay: ELISA, plates coated with HA rosettes
row,Molecule,binding result
1,B2,no binding

# — patent publication US20070203054A1 (YISSUM RESEARCH DEVELOPMENT COMPANY OF THE HEBREW …, published 2007)
